For series [1] the following is noted: cited from earlier work.
The test system of series [2] is carcinoid syndrome, advanced disease. The settings on record: patients with advanced disease; cited from earlier work.
The test system of the next series is carcinoid tumors. The settings on record: cited from earlier work.
Series [3] has as its system patients with progressive neuroendocrine tumors. Put plainly: Non-randomized trial: hematological, renal and hepatic toxicities by NCI common toxicities criteria. Type of series: in vivo. As for the experimental part: In a non-randomized trial, 32 patients (21 men and 11 women, from 16-83 years old (average 56 years old)) were tested. Among these patients, there were 25 Caucasions (78%), 2 Blacks (6%), 4 Hispanics (12.5%) and 1 other (3%). All patients had progressive neuroendocrine tumors (21 Carcinoma, 7 Islet Cell Carcinoma of the Pancreas, 1 Pituitary Adenoma, 1 Glucagonoma, and 1 Pheochromocytoma) and all had failed first line therapy (23 chemotherapy, 12 radiotherapy, and 28 surgery).
Fourteen patients received one therapy (ranging from 473.5 to 511.6 mCi, with an average of 489.2 mCi) and 18 patients received two treatments with the cumulative doses ranging from 955.1 to 1,006.1 mCi (average=982.8 mCi/patient). Patients were evaluated for evidence of hematological, renal and hepatic toxicities using NCI common toxicities criteria and followed for an average of 9 months (ranging from 1.7 to 17.2 months).
(§1) Patients were injected with ^111In-pentetreotide at an average dose of 489.2 mCi (ranging from 473.5 to 511.6 mCi) as an intravenous infusion in physiological saline using a specially designed IV pole to decrease radiation exposure to the personnel. The infusion took about 3 to 5 hours, in an outpatient setting. The amount of octreotide administered was 30 mg. Patients were evaluated for hematological, renal and hepatic toxicities using NCI common toxicities criteria on week 4, 5, 6, and 7 after treatment, and every three months thereafter. Patients were followed for an average of 8.69 months with a range of 1.7-17.2 months. 18 patients received a second treatment 10-12 weeks after the first therapy with an average cumulative dose of 982.8 mCi (ranging from 955.1 to 1006.1 mCi). These patients were evaluated for a clinical and metabolic responses beginning 4 weeks after their second therapy.

The subject of series [4] is progressive neuroendocrine tumors. Put plainly: Non-randomized trial: clinical, metabolic and imaging response (RECIST) after two cycles. The settings on record: 18 patients, two cycles of 500 mCi. In kind it is in vivo.
Source text: Among these patients, seventeen (53%) had grade I or II hematological toxicities, while one patient had grade III thrombocytopenia with nadir mean of 5 weeks (ranging from 4 to 6 weeks) after therapy (FIG. 2). These toxicities were transient, lasting from 1 to 6 weeks (averaging 3 weeks). […] One patient had grad II liver toxicity which appeared 4 weeks after the therapy and resolved in week 5. […] Among the 18 patients (13 men and 5 women, from 41 to 83 years old (average age 59)), who were treated with two cycles of high dose (500 mCi) ^111In-pentetreotide, therapeutic efficacy of this treatment regimen is evident (FIG. 3). These patient had progressive neuroendocrine tumors and failed first-line therapy. According to the pre-therapy diagnostic ^111In-pentetreotide scan, these patients had grade 3 to grade 5 tumors. In this trial, each dose of ^111In-pentetreotide was infused over a period of 3 to 6 hours. The two treatments were spaced a few weeks (e.g., […]) apart. The patients were monitored for clinical, metabolic, and imaging responses based on using Response Evaluation Criteria in Solid Tumors (RECIST) criteria (Therasse P, Arbuck S G, Eisenhauer E A, et al. New guidelines to evaluate the response to treatment in solid tumors. European Organization for Research and Treatment of Cancer, National Cancer Institute of the United States, National Cancer Institute of Canada. Journal of the National Cancer Institute 2000; 92(3):205-16.).
as §1
The efficacy of ^111In-pentetreotide therapy was evaluated in 18 patients who received two cycles of therapy. The primary endpoint was clinical, metabolic and imaging response using RECIS criteria. […] Tumor image before and after treatment showing no progression (FIG. 6).

A further series relates to disseminated NETs. The settings on record: 16 patients, repeated doses 81-134 mCi, cited from earlier work.
The subject of a further series is NETs. The settings on record: 180 mCi every 3 weeks for 10 occasions; cited from earlier work.
The mark [5] stands for this setting: 18 patients, double-dose treatments.
Setting [6] is: 32 patients, one or two cycles of about 500 mCi.

Entries after “also recorded” stand apart in the source; their conditions may differ.

Turning to `C[C@@H](O)[C@@H]1NC(=O)[C@H](CCCCN)NC(=O)[C@@H](Cc2c[nH]c3ccccc23)NC(=O)[C@H](Cc2ccccc2)NC(=O)[C@@H](NC(=O)[C@H](N)Cc2ccccc2)CSSC[C@@H](C(=O)N[C@H](CO)[C@@H](C)O)NC1=O` [octreotide], the in vivo half-life in series [1] is 90 to 120 min. Also, the “tumor stabilization, patients” value in series [2] is recorded as 50-55%.

For the compound Interferon [Interferon (IFN)], in the series on carcinoid tumors (carcinoid tumors), the biochemical response rate is listed as 40% and the tumor response rate was 12%. For the same compound, in the series with carcinoid tumors (fever, anorexia, weight loss, fatigue and myelosuppression), the toxicity entry is “significant toxicity”.

Regarding “[^111In-DTPA-D-Phe1]-octreotide [^111In-pentetreotide]”, the nose bleeds entry in series [3] (4 weeks after treatment) is “One patient”. Also, the “patients with grade I or grade II hematological toxicities” value in series [3] (18 patients, double-dose (two cycles of 500 mCi)) is on record as 55%. In series [3] (setting [5]), the “duration of hematological toxicities” value is reported as 1-6 weeks, the “grade III thrombocytopenia” value is reported as “one patient”, the “nadir mean after therapy” value turned out to be 5 weeks and the “need for supportive therapy” value is “None of the patients required supportive therapy”. For the same compound, the renal toxicity entry in series [3] (18 patients, double-dose treatments, follow-up 3.93 to 17.23 months) is “No renal toxicity was observed”. The “grade II liver toxicities” value in series [3] (18 patients, double-dose treatments, appeared 4 weeks after therapy, resolved on week 5) is recorded as “One patient”. For the same compound, the renal toxicity entry in series [3] (32 patients, follow-up 1.7 to 17.2 months) is “no evidence of renal toxicity; also recorded: No significant short or long term renal toxicity”. In series [3] (32 patients, one or two cycles), the “need for supportive therapy” value is “None of the patients required supportive therapy”. Also, in series [3] (setting [6]), the “duration of hematological toxicities (average)” value was 3 weeks, the “grade III thrombocytopenia” value was “one patient” and the “nadir mean of hematological toxicity after therapy” value was 5 weeks. In addition, the “patients with grade I or II hematological toxicities” value in series [3] (32 patients, one or two cycles of about 500 mCi, intravenous infusion) is 53%. The “grade II liver toxicity” value in series [3] (32 patients, appeared 4 weeks after therapy, resolved in week 5) is on record as “One patient”. Also, the “deaths during the course of the study” value in series [3] (32 patients, deaths attributed to tumor burden) is “Two patients died”. For the same compound, the maximum tolerated dose result in series [3] (average cumulative dose 982.8 mCi, average follow up 8.69 months) is given as “maximum tolerated dose has not been reached”. Besides, the “overall treatment associated toxicity” value in series [3] (following one or two cycles) was “no evidence of significant treatment associated toxicity”. Moreover, in series [4], the “clinical response (functional living index questionnaire and physical examination), patients” value is given as 84%; the “metabolic response (25% or more decline in chromogranin or other markers), patients” value is 72%; the “patients achieving stable disease by imaging criteria” value amounted to 88%; the “patients achieving stable disease by imaging criteria (count)” value is given as “sixteen out of the 18”. Besides, in the series with disseminated NETs (18 months after the treatments), the “patients with sustained benefit” value is recorded as 31%. In the series on disseminated NETs, the “patients with some short term benefits” value is reported as “up to 70%”. For the same compound, in the series on NETs, the “safety of repeated doses” value is on record as “demonstrated the safety”.

The values above are taken from US20080247947A1, “High dose 111In-pentetreotide therapy of neuroendocrine tumors” (priority 2007, published 2008).
